Source: PMC10121161, “Delivering a toxic metal to the active site of urease” (Science Advances, 2023)

B1: HpUreD(E140A) with C-terminal Strep-tag II, in the cryo-EM sample (natural protein)
chain: MNTYAQESKLRLKTKIGADGRCVIEDNFFTPPFKLMAPFYPKDDLAEIMLLAVSPGMMRGDAQDVQLNIGPNCKLRITSQSFEKIHNTEDGFASRDMHIVVGENAFLDFAPFPLIPFENAHFKGNTTISLRSSSQLLYSAIIVAGRVARNELFKFNRLHTKISILQDEKPIYYDNTILDPKTTDLNNMCMFDGYTHYLNLVLVNCPIELSGVRECIEESEGVDGAVSETASSHLCVKALAKGSEPLLHLREKIARLVTQTTTQKV
notes: Helicobacter pylori urease accessory protein HpUreD (encoded by ureH); also called UreH

Assays:
Assay in all cases: cryo-EM structure; HpUreFD/urease complex coexpressed in E. coli, purified by Strep-Tactin XT and Superose-6 SEC in 50 mM Hepes, 200 mM NaCl, 0.5 mM TCEP (pH 7.5); 0.5 mg/ml on grids; tetrahedral symmetry; 2.3 Å
Settings in all cases: both partners purified
[1] = target: T1, H. pylori urease (HpUreAB), in the cryo-EM sample (Helicobacter pylori, UniProt P14916 1-238; P69996 1-569)
T1 construct: Helicobacter pylori urease subunit HpUreA (γ and β domains); Helicobacter pylori urease subunit HpUreB (α domain); dodecamer of HpUreAB catalytic units (four trimers); copies: 12 + 12
T1 sequence (P69996 whole entry, one chain of several): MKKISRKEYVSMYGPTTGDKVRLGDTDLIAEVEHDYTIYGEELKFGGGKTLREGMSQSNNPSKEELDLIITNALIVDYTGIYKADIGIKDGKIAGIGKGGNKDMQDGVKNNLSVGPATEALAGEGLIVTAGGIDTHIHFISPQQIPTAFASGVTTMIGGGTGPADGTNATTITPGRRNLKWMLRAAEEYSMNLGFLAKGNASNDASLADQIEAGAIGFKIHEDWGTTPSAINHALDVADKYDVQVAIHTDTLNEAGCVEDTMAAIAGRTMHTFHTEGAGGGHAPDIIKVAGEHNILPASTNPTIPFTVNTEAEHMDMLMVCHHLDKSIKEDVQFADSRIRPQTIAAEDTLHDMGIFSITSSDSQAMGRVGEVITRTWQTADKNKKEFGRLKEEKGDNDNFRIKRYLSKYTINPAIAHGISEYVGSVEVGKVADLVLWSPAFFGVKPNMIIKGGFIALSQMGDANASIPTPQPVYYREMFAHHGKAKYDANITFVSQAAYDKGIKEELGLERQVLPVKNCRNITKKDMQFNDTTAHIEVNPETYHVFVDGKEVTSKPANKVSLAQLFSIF

[2] = target: T2, HpUreB (H. pylori urease subunit, α domain), in the cryo-EM sample (Helicobacter pylori, UniProt P69996 1-569)
T2 construct: Helicobacter pylori urease subunit HpUreB (α domain)
T2 sequence (P69996 whole entry): as the sequence (P69996 whole entry, one chain of several) above

[3] = target: B1

Binder | binding result [1] | binding result [2] | binding result [3]
HpUreF(R179A/Y183D)/HpUreD(E140A)-Strep complex, in the cryo-EM sample (complex, Helicobacter pylori urease accessory protein HpUreF; Helicobacter pylori urease accessory protein HpUreD (encoded by ureH); one copy of HpUreF and one of HpUreD per urease catalytic unit; also called HpUreFD) chain 1: MDKGKSVKSTEKSVGMPPKTPKTDNNAHVDNEFLILQVNDAVFPIGSYTHSFGLETYIQQKKVTNKESALEYLKANLSSQFLYTEMLSLKLTYESALQQDLKKILGVEEVIMLSTSPMELRLANQKLGNRFIKTLQAMNELDMGEFFNAYAQKTKDPTHATSYGVFAASLGIELKKALAHYLDAQTSNMVINCVKSVPLSQNDGQKILLSLQSPFNQLIEKTLELDESHLCTASVQNDIKAMQHESLYSRLYMS chain 2: MNTYAQESKLRLKTKIGADGRCVIEDNFFTPPFKLMAPFYPKDDLAEIMLLAVSPGMMRGDAQDVQLNIGPNCKLRITSQSFEKIHNTEDGFASRDMHIVVGENAFLDFAPFPLIPFENAHFKGNTTISLRSSSQLLYSAIIVAGRVARNELFKFNRLHTKISILQDEKPIYYDNTILDPKTTDLNNMCMFDGYTHYLNLVLVNCPIELSGVRECIEESEGVDGAVSETASSHLCVKALAKGSEPLLHLREKIARLVTQTTTQKV | binds | – | –
B1 | – | binds | –
HpUreF(R179A/Y183D), in the cryo-EM sample (natural protein, Helicobacter pylori urease accessory protein HpUreF; everywhere else R179A/Y183D) MDKGKSVKSTEKSVGMPPKTPKTDNNAHVDNEFLILQVNDAVFPIGSYTHSFGLETYIQQKKVTNKESALEYLKANLSSQFLYTEMLSLKLTYESALQQDLKKILGVEEVIMLSTSPMELRLANQKLGNRFIKTLQAMNELDMGEFFNAYAQKTKDPTHATSYGVFAASLGIELKKALAHYLDAQTSNMVINCVKSVPLSQNDGQKILLSLQSPFNQLIEKTLELDESHLCTASVQNDIKAMQHESLYSRLYMS | – | – | binds
HpUreA (H. pylori urease subunit, fusion of the γ and β domains), in the cryo-EM sample (natural protein, Helicobacter pylori urease subunit HpUreA (γ and β domains)) MKLTPKELDKLMLHYAGELAKKRKEKGIKLNYVEAVALISAHIMEEARAGKKTAAELMQEGRTLLKPDDVMDGVASMIHEVGIEAMFPDGTKLVTVHTPIEANGKLVPGELFLKNEDITINEGKKAVSVKVKNVGDRPVQIGSHFHFFEVNRCLDFDREKTFGKRLDIASGTAVRFEPGEEKSVELIDIGGNRRIFGFNALVDRQADNESKKIALHRAKERGFHGAKSDDNYVKTIKE | – | binds | binds
